# Measured values reported in paper PMC8200818, “SPECT/CT Imaging, Biodistribution and Radiation Dosimetry of a ^177Lu-DOTA-Integrin αvβ6 Cystine Knot Peptide in a Pancreatic Cancer Xenograft Model” (Frontiers in Oncology, 2021).
# Entries after “also recorded” stand apart in the source; their conditions may differ.
# Key:
# [1] = molecular target: T1, integrin αvβ6 (BxPC-3 cells) (Homo sapiens, UniProt P06756+P18564); assay: Competition binding assay, BxPC-3
# T1 construct: endogenous in cells; host or cells: BxPC-3 (whole adherent cells)
# T1 sequence (P06756 31-889 limits assumed): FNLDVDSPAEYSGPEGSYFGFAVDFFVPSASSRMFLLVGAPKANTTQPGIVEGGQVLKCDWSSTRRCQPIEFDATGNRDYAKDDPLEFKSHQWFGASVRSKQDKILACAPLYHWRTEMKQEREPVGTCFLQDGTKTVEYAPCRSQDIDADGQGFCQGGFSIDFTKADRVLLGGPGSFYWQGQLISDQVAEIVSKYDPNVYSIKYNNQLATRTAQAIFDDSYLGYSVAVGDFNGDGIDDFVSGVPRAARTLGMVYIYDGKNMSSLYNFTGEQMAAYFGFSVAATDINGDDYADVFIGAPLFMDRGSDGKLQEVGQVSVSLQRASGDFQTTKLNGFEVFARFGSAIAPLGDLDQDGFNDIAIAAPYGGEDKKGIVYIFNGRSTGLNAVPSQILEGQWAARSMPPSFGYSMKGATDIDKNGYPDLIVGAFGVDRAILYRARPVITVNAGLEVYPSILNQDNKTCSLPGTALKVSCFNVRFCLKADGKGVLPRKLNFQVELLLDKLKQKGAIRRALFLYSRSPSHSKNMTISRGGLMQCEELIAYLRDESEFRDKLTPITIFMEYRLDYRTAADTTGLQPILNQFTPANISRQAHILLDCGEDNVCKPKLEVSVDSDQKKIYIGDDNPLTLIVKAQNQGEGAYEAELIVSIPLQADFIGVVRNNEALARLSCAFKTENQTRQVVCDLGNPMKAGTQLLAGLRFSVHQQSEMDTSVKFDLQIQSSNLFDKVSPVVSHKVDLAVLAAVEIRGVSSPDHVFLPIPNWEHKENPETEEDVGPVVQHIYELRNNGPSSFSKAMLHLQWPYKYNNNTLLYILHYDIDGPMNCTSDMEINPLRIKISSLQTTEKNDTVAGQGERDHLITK
# T1 sequence (P06756 891-1048 partner limits assumed): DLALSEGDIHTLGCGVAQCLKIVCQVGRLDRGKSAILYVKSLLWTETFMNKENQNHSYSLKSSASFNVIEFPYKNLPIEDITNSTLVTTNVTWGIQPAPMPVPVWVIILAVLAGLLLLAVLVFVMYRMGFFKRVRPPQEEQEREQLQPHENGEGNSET
# T1 sequence (P18564 22-788): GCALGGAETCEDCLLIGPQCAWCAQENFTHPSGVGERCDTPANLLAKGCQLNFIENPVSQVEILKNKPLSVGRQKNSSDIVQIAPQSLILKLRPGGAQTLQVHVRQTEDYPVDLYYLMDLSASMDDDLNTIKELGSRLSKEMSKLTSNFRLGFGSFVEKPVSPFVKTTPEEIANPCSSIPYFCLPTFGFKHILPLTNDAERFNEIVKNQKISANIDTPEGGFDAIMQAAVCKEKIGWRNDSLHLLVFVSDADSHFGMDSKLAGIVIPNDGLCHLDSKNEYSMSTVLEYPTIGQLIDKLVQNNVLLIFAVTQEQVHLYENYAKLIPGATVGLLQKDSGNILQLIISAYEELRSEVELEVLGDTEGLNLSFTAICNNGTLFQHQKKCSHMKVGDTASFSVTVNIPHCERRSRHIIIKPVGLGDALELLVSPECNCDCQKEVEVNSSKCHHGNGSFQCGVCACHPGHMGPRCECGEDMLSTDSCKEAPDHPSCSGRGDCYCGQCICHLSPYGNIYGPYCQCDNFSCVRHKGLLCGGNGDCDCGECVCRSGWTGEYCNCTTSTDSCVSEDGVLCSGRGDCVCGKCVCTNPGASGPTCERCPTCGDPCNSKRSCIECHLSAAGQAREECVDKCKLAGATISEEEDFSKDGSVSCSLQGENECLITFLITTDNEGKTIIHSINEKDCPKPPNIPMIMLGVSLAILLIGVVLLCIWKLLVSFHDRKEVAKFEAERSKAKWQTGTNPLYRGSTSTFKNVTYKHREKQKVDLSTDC
# Experimental: The reaction volume was made up to 30 µl with water. The reaction was carried out for 10 minutes at 80°C.
# For competitive radioligand binding assay, approximately 50,000 cells (BxPC-3 or Capan-2) per well were seeded in a 96 well plate incubated overnight at 37°C. […] After 2 hours of incubation, cells were washed for 2-3 times with ice-cold washing buffer (50 mM Tris-HCl, pH 7.4, 125 mM NaCl, 0.05% BSA) and lysed with 1 N NaOH (80 µl/well). The lysed cells were transferred to vials and measured in a gamma counter (Wallac 1470 Wizard, Perkin Elmer, Waltham, MA, USA). Obtained cpm values were plotted with GraphPad Prism and the data fitted using nonlinear regression (one site - fit Ki, one site - fit logIC50).
# All statistical analyses were performed using GraphPad Prism 5.04. IC50 values were determined by nonlinear sigmoidal curve fitting with variable slope setting. All presented data are based on independent experiments. Numerical data for this study have been deposited in an open data repository for public access: http://doi.org/10.5281/zenodo.4362503.
# [2] = system: Capan-2 xenografts
# Excerpt: For in vivo experiments, at least 8-week-old female athymic NMRI-Foxn1^nu/Foxn1^nu mice (Janvier Labs, Saint-Berthevin, France) were used. Animal care followed institutional guidelines and all experiments were approved by local animal research authorities. For the generation of tumor xenografts, 5 x 10^6 cells of Capan-2 cells were inoculated subcutaneously into the left and right shoulder (1:1 phosphate-buffered saline [PBS]/Matrigel Basement Membrane Matrix High Concentration, Corning, Corning, USA). Tumors were allowed to grow for two to four weeks (tumor volume > 100 mm^3) after cell inoculation.
# Radiolabeling of the DOTA-integrin αvβ6 knottin was carried out manually using [^177Lu]LuCl3 and a reagent kit from ITG Isotope Technologies Garching GmbH (Garching, Germany). A total of 40 µL (stock solution of peptide at 1 µg/µL in 10% DMSO in water) was added to 500 µL of ascorbate buffer solution pH 5.0, prepared from the kit (composition not disclosed by vendor) and the resulting mixture was then added to 35 µL of [^177Lu]LuCl3 (2 GBq in aqueous 0.04 M HCl) and the reaction mixture was heated at 80 °C for 35 minutes followed by cooling for 10 minutes at room temperature. The product was then diluted with 0.5 mL of saline and the pH was adjusted to 7 using a 1 M aqueous solution of NaHCO3 prior to injection in mice. A reverse-phase HPLC system (Knauer GmbH, Germany) with a column (Eurospher II, C18, 250 × 4 mm) was used to determine the radiochemical purity of the radiotracer. The HPLC system was equipped with an Azura P.6.1L pump coupled with ultraviolet (Azura UVD 2.1L) and radiometric (γ-Raytest-Isotopenmessgeraete GmbH, Germany) detectors. The gradient elution system used mobile phase A (100% acetonitrile) and mobile phase B (deionized H2O containing 0.1% trifluoroacetic acid) and a flow rate of 1.0 mL/min. Starting with 0% A and 100% B, the gradient was increased to 100% A over 25 min and finally returned to initial gradient conditions within 5 min.
# SPECT and CT imaging were performed using the nanoSPECT/CTplus scanner (Mediso, Hungary/Bioscan, France). […]
# [3] = Dosimetric calculation for human adult male (OLINDA/EXM 1.1)
# Excerpt: Assuming that the organ-to-whole-body activity concentration ratio in mice would equal that in humans, the injected activity concentration (%IA/g) acquired from the mouse biodistribution study was transformed to human whole-organ percentage of injected activity per gram of tissue (%IA/g) human. The mouse uptake data were extrapolated to humans by relative scaling of mass and time using the following two equations,
# (1) (%IA/organ)human=[(%IA/g)mouse×Mmouse(kg)×[m(g)/M(kg)]human
# (2) thuman=tanimal[Mhuman/Manimal]^0.25
# where %IA/g is percentage of injected activity per gram of tissue, %IA/organ is percentage of injected activity per organ; m is organ mass of mouse or human, M is body mass of mouse or human; t is time. The absorbed doses per activity were calculated by using the extrapolated human source organ residence times as input in the OLINDA/EXM 1.1 software (Organ Level Internal Dose Assessment Code, Vanderbilt University, Nashville, USA), with the reference adult male ([25]).
# [4] = adult male human, extrapolated from mouse biodistribution
structure (smiles),measurement,setting,value
"CC[C@H](C)[C@@H]1NC(=O)[C@@H](NC(=O)CNC(=O)CN2CCN(CC(=O)O)CCN(CC(=O)O)CCN(CC(=O)O)CC2)CSSC[C@@H]2NC(=O)[C@H](C)NC(=O)CNC(=O)[C@@H]3CCCN3C(=O)[C@@H]3CSSC[C@@H](C(=O)NCC(=O)O)NC(=O)[C@H](Cc4ccc(O)cc4)NC(=O)CNC(=O)[C@H](CC(N)=O)NC(=O)CNC(=O)[C@H](CCCNC(=N)N)NC(=O)[C@H](CSSC[C@H](NC(=O)[C@H](CCCNC(=N)N)NC(=O)[C@H](Cc4ccccc4)NC(=O)[C@H](CC(C)C)NC(=O)[C@H](CC(C)C)NC(=O)[C@H]([C@@H](C)O)NC(=O)CNC(=O)[C@H](CC(C)C)NC(=O)[C@H](CC(=O)O)NC(=O)[C@H]([C@@H](C)O)NC(=O)[C@H](CCCNC(=N)N)NC(=O)CNC(=O)[C@H](CC(N)=O)NC(=O)[C@H](CC(C)C)NC1=O)C(=O)N[C@@H](CCCNC(=N)N)C(=O)N[C@@H](CCCNC(=N)N)C(=O)N[C@@H](CC(=O)O)C(=O)N[C@@H](CO)C(=O)N[C@@H](CC(=O)O)C(=O)N3)NC(=O)[C@H]([C@@H](C)CC)NC2=O [^177Lu-DOTA-integrin αvβ6 knottin, metal not drawn]",Binding affinity of the ^177Lu tracer,[1],low single-digit nanomolar range; also recorded: high affinity and specific binding to target-positive cells and tumors
same,Tracer accumulation (SPECT MIP),"[2]; 22 h p.i., 62 MBq i.v.",accumulation of ^177Lu-DOTA-integrin αvβ6 knottin in both the tumors and the kidneys
same,Uptake by other organs (SPECT),"[2]; 22 h p.i., 62 MBq i.v.",low or moderate
same,Initial kidney accumulation (SPECT),"[2]; kidney versus tumor, up to 3 h p.i.",higher initial accumulation
same,"Expected absorbed dose, Liver",[3]; [4],9.34E-04 mSv/MBq
same,"Expected absorbed dose, Thymus",[3]; [4],5.08E-06 rem/mCi
same,Dose-limiting organ,"[3]; human projection, preliminary",The absorbed doses in the kidney propose it as the dose-limiting organ
